From US20240132622A1 (Bristol-Myers Squibb, published 2024)

Assays:
recombinant human PAD4 [1] = target: T1, recombinant human PAD4 (human, UniProt Q9UM07 1-663); assay: cell-based or functional assay
recombinant human PAD4 [2] = target: T1, recombinant human PAD4; assay: SPR 37 C, captured antibody, PAD4 analyte, 2 mM EDTA
Procedure: (§1) For SPR measurements, either an anti-human capture surface or Protein A surface (Cytiva catalog #29127555) was used. Anti-human capture surface was prepared by immobilizing anti-human capture antibody (Cytiva catalog #29234600) onto flow cells of a CM5 or CM4 biosensor following the manufacturer's amine coupling protocol (Cytiva catalog #BR-1006-33). SPR experiments were conducted at 37° C. using HBS-P (150 mM NaCl, 10 mM HEPES, pH 7.6, 0.05% Tween-20) (TEKNOVA catalog #H8032) with additional 150 mM NaCl and 1 mM or 2 mM CaCl₂) (see Table 2) or 2 mM EDTA (see Table 3) as running buffer. Antibodies were diluted to 1.5 μg/mL in the running buffer, and were captured across active biosensor flow cells at 10 μL/min for 15 to 30 seconds. […] The association and dissociation of the antibodies with PAD4 were measured. One 30 second injection followed by one 15 second injection of 10 mM glycine pH 1.5 was used to regenerate the Protein A capture surface between assay cycles. For anti-human capture surface, two 30 second injections of 3 M MgCl₂ was used for regeneration. SPR measurements for mAb20 and mAb 13 SPR were done in the presence of 2 mM CaCl₂). The remaining antibodies were tested in the presence of 1 mM CaCl₂).
(§2) Rate constants kₒₙ and koff were derived from reference flow cell- and 0 nM blank-subtracted sensorgrams, and were fit to a 1:1 binding model in Biacore® Insight Evaluation software version 3.0.12.15655. Deviations from 1:1 binding model were observed, which may be caused by increased dimerization of PAD4 at higher concentrations. The equilibrium dissociation constant, KD, was calculated as the ratio of rate constants koff/kₒₙ for each PAD4 antibody. For those antibodies that were tested in multiple SPR experiments, the average value and standard deviation from two or three separate experiments are listed in Tables 2 and 3.

recombinant human PAD4 [3] = target: T1, recombinant human PAD4; assay: SPR 37 C, captured antibody, PAD4 analyte, 1 mM CaCl2
Procedure: Their binding to human PAD4 was measured by Surface Plasmon Resonance (SPR). SPR measurements were performed with a Biacore® 8K, 8K+, or T200 instrument (Cytiva). The association rate constants, kₒₙ, dissociation rate constants, koff, and equilibrium dissociation constants, KD, of the antibodies with PAD4 were determined from these SPR measurements.
as §1
as §2, with “antibody.” for “antibody. For those antibodies that were tested in multiple SPR experiments, the average value and standard deviation from two or three separate experiments are listed in Tables 2 and 3.”

[4] = target: extracellular matrix (ECM) proteins; assay: ECM plate ELISA (Matrigel), 1 uM antibody, A450 over wells without sample

T1 sequence (Q9UM07 whole entry): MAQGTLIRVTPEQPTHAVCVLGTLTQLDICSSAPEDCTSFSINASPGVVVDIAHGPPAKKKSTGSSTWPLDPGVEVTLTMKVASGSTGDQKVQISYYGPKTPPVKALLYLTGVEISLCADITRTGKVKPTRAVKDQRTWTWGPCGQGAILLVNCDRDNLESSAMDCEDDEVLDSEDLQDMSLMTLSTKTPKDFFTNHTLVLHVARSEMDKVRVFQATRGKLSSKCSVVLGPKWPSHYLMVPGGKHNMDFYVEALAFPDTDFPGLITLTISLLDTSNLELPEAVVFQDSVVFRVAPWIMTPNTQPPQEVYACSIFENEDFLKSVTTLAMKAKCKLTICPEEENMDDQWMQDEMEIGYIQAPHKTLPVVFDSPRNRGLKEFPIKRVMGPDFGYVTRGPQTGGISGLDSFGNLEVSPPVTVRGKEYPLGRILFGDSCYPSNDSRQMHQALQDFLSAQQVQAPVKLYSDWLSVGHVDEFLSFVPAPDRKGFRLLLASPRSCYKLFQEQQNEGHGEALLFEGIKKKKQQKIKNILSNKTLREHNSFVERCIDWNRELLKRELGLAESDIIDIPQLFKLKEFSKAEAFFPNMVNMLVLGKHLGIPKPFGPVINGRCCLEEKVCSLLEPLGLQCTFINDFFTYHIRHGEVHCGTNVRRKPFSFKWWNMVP

IC50 (average), PAD4 citrullination of peptide …, RapidFire MS (recombinant human PAD4 [1]) [nM]	Kd (recombinant human PAD4 [2]) [nM]	koff (recombinant human PAD4 [2]) [s⁻¹]	kon (recombinant human PAD4 [2]) [M⁻¹ s⁻¹]	Kd (recombinant human PAD4 [3]) [nM]	koff (recombinant human PAD4 [3]) [s⁻¹]	kon (recombinant human PAD4 [3]) [M⁻¹ s⁻¹]	ECM Score (1 µM) [4]	Binder
64.7	0.5	0.00021	380000	0.8	0.00026	350000	5	hz20-7 (antibody, IgG1, V domains shown, also called clone 20-based hz20-7 antibody) VH: QVQLVQSGAEVKKPGASVKVSCKASGYTFTNYGISWVRQAPGQGLEWMGEIYPRSGNTYHNEKFKDRVTMTTDTSTSTAYMELRSLRSDDTAVYYCARSMITTRYWYFDVWGKGTTVTVSS VL: DIVMTQSPDSLAVSLGERATINCRASESVDTYGNSFMHWYQQKPGQPPKLLIYLASNLESGVPDRFSGSGSGTDFTLTISSLQAEDVAVYYCQQNNEDPLTFGQGTKLEIK
118	3	0.00073	240000	1.7	0.00046	270000	1	hz20-4 (antibody, V domains shown, light constant region not tied to this antibody) VH: QVQLVQSGAEVKKPGASVKVSCKASGYTFTNYGISWVRQAPGQGLEWMGEIYPRSGNTYHNEKFKDRVTMTADTSTSTVYMELSSLRSEDTAVYYCARSMITTRYWYFDVWGKGTTVTVSS VL: DIVMTQSPDSLAVSLGERATINCRASESVDTYGNSFMHWYQQKPGQPPKLLIYLASNLESGVPDRFSGSGSGTDFTLTISSLQAEDVAVYYCQQNNEDPLTFGAGTKLELK
42.4	–	–	–	0.1	0.0002	3.1e+06	1	hz13-12 (antibody, IgG1, V domains shown, also called clone 13-based hz13-12 antibody) VH: EVQLVQSGAEVKKPGATVKISCTSSDFNIKDHFIHWVQQAPGKGLEWMGRIDPEDDETKYAPKFQDRVTITADTSTDTAYMELSSLRSEDTAVYYCAGYGNYEGAMDYWGQGTTVTVSS VL: DVVMTQSPLSLPVTLGQPASISCRASENVNNYGIGFMNWFQQRPGQSPRLLIYAASRRGSGVPDRFSGSGSGTDFTLKISRVEEEDVGVYYCQQSKEVPYTFGGGTKVEIK
–	–	–	–	0.1	0.0003	2.7e+06	–	hz13-12 D31E (antibody, human IgG1, kappa, V domains shown, IgG1.3f; also called hz3-12 D31E) VH: EVQLVQSGAEVKKPGATVKISCTSSDFNIKEHFIHWVQQAPGKGLEWMGRIDPEDDETKYAPKFQDRVTITADTSTDTAYMELSSLRSEDTAVYYCAGYGNYEGAMDYWGQGTTVTVSS VL: DVVMTQSPLSLPVTLGQPASISCRASENVNNYGIGFMNWFQQRPGQSPRLLIYAASRRGSGVPDRFSGSGSGTDFTLKISRVEEEDVGVYYCQQSKEVPYTFGGGTKVEIKR
55.8	–	–	–	0.1	0.00017	2.2e+06	1	hz13-10 (antibody, V domains shown, light constant region not tied to this antibody) VH: EVQLVQSGAEVKKPGATVKISCKVSDFNIKDHFIHWVQQAPGKGLEWMGRIDPEDDETKYAPKFQDRVTITADTSTDTAYMELSSLRSEDTAVYYCAGYGNYEGAMDYWGQGTTVTVSS VL: DVVMTQSPLSLPVTLGQPASISCRASENVNNYGIGFMNWFQQRPGQSPRLLIYAASRRGSGVPDRFSGSGSGTDFTLKISRVEEEDVGVYYCQQSKEVPYTFGGGTKVEIK
88.7	–	–	–	0.1	0.00015	1.9e+06	1	hz13-11 (antibody, V domains shown, light constant region not tied to this antibody) VH: EVQLVQSGAEVKKPGATVKISCTSSDFNIKDHFIHWVQQAPGKGLEWMGRIDPEDDETKYAPKFQDRVTITADTSTDTAYMELSSLRSEDTAVYYCAGYGNYEGAMDYWGQGTTVTVSS VL: DVVMTQSPLSLPVTLGQPASISCRASENVNNYGIGFMNWFQQRPGQSPRRLIYAASRRGSGVPDRFSGSGSGTDFTLKISRVEAEDVGVYYCQQSKEVPYTFGGGTKVEIK
